Results: publication PMC3177975

Key:
Details in all cases: amino acid activation with ATP; no EF-P stated
[1] = substrate: NCCC[C@@H](N)CC(=O)O; assay: steady-state kinetics of amino acid activation; type: biochemical, Escherichia coli
[2] = substrate: NCCC[C@H](N)CC(=O)O; assay: steady-state kinetics of amino acid activation; type: biochemical, Escherichia coli
[3] = substrate: NCCCC[C@H](N)C(=O)O; assay: purified protein

B1: PoxA (Escherichia coli K-12) (protein)
chain: MSETASWQPSASIPNLLKRAAIMAEIRRFFADRGVLEVETPCMSQATVTDIHLVPFETRFVGPGHSQGMNLWLMTSPEYHMKRLLVAGCGPVFQLCRSFRNEEMGRYHNPEFTMLEWYRPHYDMYRLMNEVDDLLQQVLDCPAAESLSYQQAFLRYLEIDPLSADKTQLREVAAKLDLSNVADTEEDRDTLLQLLFTFGVEPNIGKEKPTFVYHFPASQASLAQISTEDHRVAERFEVYYKGIELANGFHELTDAREQQQRFEQDNRKRAARGLPQHPIDQNLIEALKVGMPDCSGVALGVDRLVMLALGAETLAEVIAFSVDRA
B1 gave a Km [1] of 213 ± 31 µM, a kcat [1] of 0.6 ± 0.055 s⁻¹ and a kcat/Km [1] of 2820 M⁻¹ s⁻¹. It also gave a Km [2] of 6950 ± 1894 µM, a kcat [2] of 0.0467 s⁻¹ and a kcat/Km [2] of 6.67 M⁻¹ s⁻¹. It also gave a Km [3] of 8600 ± 1200 µM, a kcat [3] of 0.25 s⁻¹ and a kcat/Km [3] of 28.3 M⁻¹ s⁻¹.

B2: PoxA (Escherichia coli K-12; A298G) (protein)
chain: MSETASWQPSASIPNLLKRAAIMAEIRRFFADRGVLEVETPCMSQATVTDIHLVPFETRFVGPGHSQGMNLWLMTSPEYHMKRLLVAGCGPVFQLCRSFRNEEMGRYHNPEFTMLEWYRPHYDMYRLMNEVDDLLQQVLDCPAAESLSYQQAFLRYLEIDPLSADKTQLREVAAKLDLSNVADTEEDRDTLLQLLFTFGVEPNIGKEKPTFVYHFPASQASLAQISTEDHRVAERFEVYYKGIELANGFHELTDAREQQQRFEQDNRKRAARGLPQHPIDQNLIEALKVGMPDCSGVGLGVDRLVMLALGAETLAEVIAFSVDRA
B2 was tested, and the Km [1] was 414 ± 63 µM, the kcat [1] was 0.283 ± 0.00833 s⁻¹ and the kcat/Km [1] was 683 M⁻¹ s⁻¹. The Km [3] was 344 ± 44 µM, the kcat [3] was 0.0633 s⁻¹ and the kcat/Km [3] was 185 M⁻¹ s⁻¹.
